Consider three substances from patent US12637517B2, “Enzyme and pathway modulation with sulfhydryl compounds and their derivatives” (HOFFMANN-LA ROCHE INC., priority 2020, dated 2026).

One assay addresses FcRn (Homo sapiens, UniProt P55899). As to the kind of experiment: Relative binding to FcRn by surface plasmon resonance (SPR). The following applies: for Relative level of FcRn binding (at Day-14) (%): EXAMPLE-8, small-scale purified mAb from CHO L971 process, SPR. The text has this: The neonatal Fe receptor (FcRn) influences the pharmacokinetic (PK) profile of IgG-type antibodies by its ability to salvage antibodies from the early endosome and recycle them back into circulation. The interaction with FcRn is considered to be the most critical factor in determining the PK of IgG-type therapeutic antibodies and is considered a surrogate for clearance (see review Nimmerjahn and Ravetch 2008).
(§1) Here, relative binding of the small-scale purified aSyn-L971-mAb samples to FcRn and FcγIIa (His131) by surface plasmon resonance (SPR) was determined. The relative binding of the small-scale purified aSyn-L971-mAb samples to the target was determined by ELISA.
On the technique in general: Surface plasmon resonance follows binding to a sensor surface in real time, without labels.

In another assay the target is T1, Fcγ-RIIa (H131) (Homo sapiens, UniProt P12318).
T1 sequence (P12318 34-217 limits assumed): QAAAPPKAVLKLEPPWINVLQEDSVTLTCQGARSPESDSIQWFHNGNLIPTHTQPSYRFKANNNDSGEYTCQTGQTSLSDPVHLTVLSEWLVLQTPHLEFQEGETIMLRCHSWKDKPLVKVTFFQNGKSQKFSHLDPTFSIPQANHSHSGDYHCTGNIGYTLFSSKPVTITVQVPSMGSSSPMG
As to the kind of experiment: Relative binding to FcγIIa (His131) by surface plasmon resonance (SPR). The following applies: for Relative level of FcyRIIa binding (at Day-14) (%): EXAMPLE-8, small-scale purified mAb from CHO L971 process, SPR, H131 allotype.
Description: Fcγ-receptors are mediators of effector functions on immune effector cells. Among the different human Fcγ-receptors, Fcγ-RIIa is considered to be a dominant factor in mediating antibody dependent phagocytosis (ADCP). Of the two most prevalent allotypes of Fcγ-RIIa, the form with a histidine at amino acid position 131 (H131) is often described as the higher affinity allotype. (Nimmerjahn and Ravetch 2008, Yamada et al. 2013)
as §1

The target in another assay is human α-synuclein (Homo sapiens, UniProt P37840). As to the kind of experiment: Relative binding to the target by ELISA. The following applies: for Relative level of Target binding (at Day-14) (%): EXAMPLE-8, small-scale purified mAb from CHO L971 process, ELISA. How it is done: as §1
In general terms: In an ELISA, binding on a coated surface is turned into a signal by an enzyme label.

FcRn, sequence (P55899 24-297 limits assumed): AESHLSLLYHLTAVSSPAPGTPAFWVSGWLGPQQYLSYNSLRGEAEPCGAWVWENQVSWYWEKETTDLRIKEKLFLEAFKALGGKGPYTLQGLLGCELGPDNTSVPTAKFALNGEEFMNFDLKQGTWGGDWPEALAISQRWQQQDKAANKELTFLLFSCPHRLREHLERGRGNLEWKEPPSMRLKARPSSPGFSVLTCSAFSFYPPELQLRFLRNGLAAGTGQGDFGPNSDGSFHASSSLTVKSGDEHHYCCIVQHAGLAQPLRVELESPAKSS
FcRn, sequence (P61769 21-119 partner): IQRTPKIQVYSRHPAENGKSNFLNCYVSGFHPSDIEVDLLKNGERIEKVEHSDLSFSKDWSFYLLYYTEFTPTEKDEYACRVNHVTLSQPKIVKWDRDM

Take “anti-α-synuclein L971 (6 mM Cysteine): anti-human α-synuclein monoclonal antibody (Prasinezumab) from CHO L971 process with 6 mM L-cysteine in production medium”: the “Relative level of FcRn binding (at Day-14) (%)” value with FcRn worked out at 118.0%. Further, the “Relative level of FcyRIIa binding (at Day-14) (%)” value with Fcγ-RIIa (H131) was 113.0%. Also, in the assay with human α-synuclein, the “Relative level of Target binding (at Day-14) (%)” value is recorded as 118.0%.
For the substance “anti-α-synuclein L971 (3 mM Cystine): anti-human α-synuclein monoclonal antibody (Prasinezumab) from CHO L971 process with 3 mM L-cystine in production medium”, in the assay with FcRn, the “Relative level of FcRn binding (at Day-14) (%)” value is 85.0%. The “Relative level of FcyRIIa binding (at Day-14) (%)” value with Fcγ-RIIa (H131) is recorded as 77.0%. Moreover, the “Relative level of Target binding (at Day-14) (%)” value with human α-synuclein was 83.0%.
Take “anti-α-synuclein antibody L971: anti-human α-synuclein monoclonal antibody expressed by CHO L971 cell-line; CHO L971 cells produce Prasinezumab”: the “FcRn relative binding level, higher than from the process with 3 mM L-cystine” value with FcRn (FIG. 11C, antibody from process with 6 mM L-cysteine vs 3 mM L-cystine) is “about 33%”. Moreover, the “FcRn relative binding level” value with FcRn (FIG. 11C, antibody from the process with 3 mM L-cystine in production medium) is listed as “about 85%”; with FcRn (FIG. 11C, antibody from the process with 6 mM L-cysteine in production medium), “about 118%”. The “Fcγ-RIIa (H131) relative binding level, higher than from the process with 3 mM L-cystine” value with Fcγ-RIIa (H131) (FIG. 11D, antibody from process with 6 mM L-cysteine vs 3 mM L-cystine) was “about 36%”. Besides, the “Fcγ-RIIa (H131) relative binding level” value with Fcγ-RIIa (H131) (FIG. 11D, antibody from the process with 3 mM L-cystine in production medium) was “about 77%”; with Fcγ-RIIa (H131) (FIG. 11D, antibody from the process with 6 mM L-cysteine in production medium) it was “about 113%”. In addition, the “target relative binding level, higher than from the process with 3 mM L-cystine” value in the assay with human α-synuclein (FIG. 11E, antibody from process with 6 mM L-cysteine vs 3 mM L-cystine) is recorded as “about 35%”. For the same substance, the “target relative binding level” value is “about 83%” with human α-synuclein (FIG. 11E, antibody from the process with 3 mM L-cystine in production medium) and “about 118%” in the assay with human α-synuclein (FIG. 11E, antibody from the process with 6 mM L-cysteine in production medium).
